In patent US20210085770A1:

target: recombinant SARS-CoV-2 S1 protein expressed from insect (Sf9) cells (S1-His, SinoBiological, Cat. No. 40591-V08B1) (SARS-CoV-2) (UniProt P0DTC2); assay: ELISA, coated insect-cell S1-His, HRP-conjugated lectin 10 ug/mL

Peanut Agglutinin (PNA), lectin from Arachis hypogaea, sequence (P02872 24-259 limits assumed): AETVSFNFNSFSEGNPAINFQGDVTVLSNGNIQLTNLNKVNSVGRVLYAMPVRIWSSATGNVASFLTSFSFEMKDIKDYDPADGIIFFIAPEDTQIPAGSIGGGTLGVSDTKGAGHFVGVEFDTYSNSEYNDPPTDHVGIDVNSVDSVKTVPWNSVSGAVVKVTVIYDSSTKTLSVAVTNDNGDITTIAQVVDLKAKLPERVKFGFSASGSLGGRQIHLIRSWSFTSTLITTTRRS
Maclura pomifera lectin (MPA), sequence (P18674 whole entry): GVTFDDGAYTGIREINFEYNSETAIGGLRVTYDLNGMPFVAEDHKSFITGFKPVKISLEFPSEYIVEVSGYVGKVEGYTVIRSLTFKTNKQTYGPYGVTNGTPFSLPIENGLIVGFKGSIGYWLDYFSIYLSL
Maclura pomifera lectin (MPA), sequence (P18676 whole entry, further chain): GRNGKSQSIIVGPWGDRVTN

Row | Substance | mean fold increase of OD450 [fold]
1 | Salvia sclarea lectin (SSA) | 3.97
2 | Maclura pomifera lectin (MPA) | 7.51
3 | Peanut Agglutinin (PNA), lectin from Arachis hypogaea (from UniProt P02872 24-259) | 22.7

target: recombinant SARS-CoV-2 S1 protein expressed from insect (Sf9) cells (S1-His, SinoBiological, Cat. No. 40591-V08B1) (SARS-CoV-2) (UniProt P0DTC2); assay: not given

Row | Substance | mean fold increase of OD450 [fold]
4 | Tn218 IgM anti-Tn monoclonal antibody (Abnova, Cat. No. MAB6198) | 1.77
5 | mouse monoclonal IgG3 antibody JAA-F11 | 3.32
6 | SPM320 IgM anti-TF monoclonal antibody (Abnova, Cat. No. MAB13207) | 5.5
